Here are results for one molecule from publication PMC8844075, “Structural basis of neuropeptide Y signaling through Y1 receptor” (Nature Communications, 2022).

In the assay the target is T1, Y1R L26^NA/F28^NA mutant (printed L28^NA/F28^NA) (human, UniProt P25929 1-384, L26^N to A (the mutant's label is printed L28^NA; the same sentence names the …).
T1 sequence (looked up): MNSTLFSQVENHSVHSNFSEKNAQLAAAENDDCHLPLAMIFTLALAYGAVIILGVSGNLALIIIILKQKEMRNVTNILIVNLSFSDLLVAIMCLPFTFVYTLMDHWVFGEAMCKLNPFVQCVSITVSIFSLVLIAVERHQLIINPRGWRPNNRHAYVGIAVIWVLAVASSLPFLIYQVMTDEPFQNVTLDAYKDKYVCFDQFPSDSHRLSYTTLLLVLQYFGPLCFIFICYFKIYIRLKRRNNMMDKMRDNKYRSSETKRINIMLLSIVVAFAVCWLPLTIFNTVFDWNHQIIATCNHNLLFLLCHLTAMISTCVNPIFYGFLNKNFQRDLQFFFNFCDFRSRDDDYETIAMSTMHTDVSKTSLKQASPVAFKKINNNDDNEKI
Kind of assay: cell-based or functional assay.

B1: neuropeptide Y (NPY) (peptide)
peptide: not shown
modifications: C-terminal amide (amidated C-terminal residue Y36)
Consider B1, for which the “NPY signalling, increase in EC50 against wild-type Y1R” value is 2.8 fold.
